Paper PMC4030970, “Structural Evidence for the Tetrameric Assembly of Chemokine CCL11 and the Glycosaminoglycan Arixtra™” (Biomolecules, 2013)
“And” between values parts separate entries of the source, which are not always exact repeats. Equal values may be shown once.

What was measured:
[1] = target: human chemokine CCL11 (Eotaxin-1) (human) (UniProt P51671); test: native MS; ion mobility MS (Waters Synapt G2 HDMS), nanospray; equimolar (1:1) mixture of CCL11 and Arixtra in 250 mM ammonium acetate; oligomers seen unbound and bound to Arixtra; MS/MS of the [tetramer+Arixtra]12+ ion gives monomer and trimer+Arixtra
[2] = target: human chemokine CCL11 (Eotaxin-1) (human) (UniProt P51671); test: crystal structure; very preliminary X-ray structure of the CCL11 tetramer bound to Arixtra; de-twinned; Rfactor 17.6%, Rfree 26.7%; not deposited
[3] = target: human chemokine CCL11 (Eotaxin-1) (human) (UniProt P51671); test: native MS; ion mobility MS (Waters Synapt G2 HDMS), nanospray; CCL11 alone at 20 μM in 250 mM ammonium acetate (pH 6.8), native conditions

stoichiometry N ([1]; Dimer + Arixtra): 2
stoichiometry N ([1]; Tetramer + Arixtra): 4
stoichiometry N [2]: 4
stoichiometry N [3]: 4 and 2
Substance: human chemokine CCL11 (Eotaxin-1), P51671 24-97 (natural protein; other documents disagree on this pair)
